Results: patent US20200010567A1 (NEURIMMUNE, published 2020)

T1: GA10: H-(GA)10HHHHHH-NH2 (C-terminal amide)
T1 peptide: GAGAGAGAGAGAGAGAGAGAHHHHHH

T2: GA6: H-(GA)6HHHHHH-NH2
T2 peptide: H-GAGAGAGAGAGAHHHHHH-NH2

T3: GA20: H-(GA)20HHHHHH-NH2 (C-terminal amide)
T3 peptide: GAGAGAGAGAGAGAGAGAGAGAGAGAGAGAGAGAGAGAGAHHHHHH

T4: monomeric C9orf72 (GA)20 DPR protein peptide preparation (C-terminal amide)
T4 construct: also called monomeric (GA)20
T4 peptide: T3 peptide

T5: aggregated C9orf72 (GA)20 DPR protein peptide preparation (C-terminal amide)
T5 construct: also called aggregated (GA)20; amyloid-fibril like aggregated (GA)20
T5 peptide: T3 peptide

B1: NI-308.5G2 (antibody, V domains shown)
VH: EVQLVQSGADLRNPGASVTVSCTASGYHFADNAINWLRQAPGQRLEWMGWINIYSGNTKYSQNFQGRVTFTRNTSASTAFMHLRSLRSEDTAVYFCARDPDSSGYYLPYFDYWGQGTLVTVSS
VL: DIQLTQSPDSLTLSLGERATINCKSSQSVFYNSNNKNYLAWYQQKPGQPPKLLMYWASTRESGVTDRFSGSGSGTDFTLTITNLQAEDVAVYYCQQFYSSPLTFGGGTKVEIK
notes: Recombinant complete human IgG1, kappa
B2: NI-308.28G1 (antibody, V domains shown)
VH: QVQLQESGPRLVKPSETLSLTCTVAGGSVNSYYWTWIQQSPGKGLEWLGRIYIAGRTNYNPSLTSRIALSVDTSRNQLSLKLTSVTAADTAIYYCARWGAESGDYYYGVDVWGPGTLVTVSS
VL: EIVMTQSPLSLPVTPGEPASISCKSSEGLLHSNGYTYLDWYLQKPGQAPQLLIFLASNRAAGVPDRFSGSGSGTDFTLKISRVEAEDVGVYYCMQAIQSPWTFGPGTKVEIK
notes: as for B1
B3: NI-308.6B11 (antibody, V domains shown)
VH: EVQLVQSGAEVKRPGASVKVSCKVSGYTLTELSMHWVRQAPGKGLEWMGGFDPEDGETVYAQKFQGRVTMTEDTSTDTAYMELSSLRSEDTALYHCATYGSSWHWNEGNEGSYYFDYWGQGTLVTVSS
VL: CDIQMTQSPSSLSASVGDRVTITCQASQDISIYLNWYQQKPGKAPKLLIYDASNLETGVPSRFSGSGSGTDFTFTISGLQPEDVARYYCQQYDDLPITFGQGTRLEIK
notes: as for B1
B4: NI-308.45C2 (antibody, V domains shown)
VH: QLQLQESGPGLVKPSQILSLTCAISGDSVFSNSAAWNWIRQSPSRGLEWLGRTYYRSKWDNDYAPSVKSRISINPDTSKNQFSLQLNSVTPEDTAVYYCAREVAYCGGDCYSVSFDYWGQGTLVTVSS
VL: not shown
notes: as for B1
B5: NI-308.18F7 (antibody, V domains shown)
VH: QVQLQESGPGLVKPSETLSVTCTVSGGSINDYYWNWIRQPAGKGLEWIGRIYASGTINYNPSLQSRVTMSIDTSKNQFSLDLISVSAADTAVYYCARWGQVVGDYYYGMDVWGQGTTVTVSS
VL: EIVLTQSPLSLSVTPGEPASISCKSSQSLQHTNGYNYLDWYLLKPGQSPQLLIFLTSNRASGVPDRFSGSGSGTNFTLKISRVEAEDVGVYYCMEGIQLWTFGQGTKLEIK
notes: as for B1
B6: NI-308.15O7 (antibody, V domains shown)
VH: QVQLVESGGGVVQPGRSLRLSCAASGFTFSNHAMHWVRQAPGKGLEWVAVISYDGENTYYADSIEGRFTISRDNFKNTLFLQMYSLTADDTAMYFCARGGRRGHFTSYYLDYWGQGTLVTVSS
VL: CDIQMTQSPSSLSASVGDRVTITCRASQNIDKYLNWYQQIPGKAPKLLIYAASSLHSGVPSRFSGSGSGTDFSLTISSLQPEDFAIYYCQQSYSSFRTFGQGTKLEIK

Columns and labels:
GA10: H-(GA)10HHHHHH-NH2 [1] = target: T1, GA10: H-(GA)10HHHHHH-NH2; assay: indirect ELISA, coated His-tagged peptide
Source text: (§1) In brief, dipeptide repeat proteins were synthesized and purified by Schafer-N (Copenhagen, Denmark): GA₂₀: H-(GA)₂₀HHHHHH-NH₂; GA₁₀: H-(GA)₁₀HHHHHH-NH₂; GA₆: H-(GA)₆HHHHHH-NH₂; GA₅: H-(GA)₅HHHHHH-NH₂; GA₄: H-(GA)₄HHHHHH-NH₂; GA₃: H-(GA)₃HHHHHH-NH₂; GA₂: H-(GA)₂HHHHHH-NH₂; GP₂₀: H-(GP)₂₀HHHHHH-NH₂; GP₁₀: H-(GP)₁₀HHHHHH-NH₂; GP₆: H-(GP)₆HHHHHH-NH₂; GP₅: H-(GP)₅HHHHHH-NH₂; GP₄: H-(GP)₄HHHHHH-NH₂; GP₃: H-(GP)₃HHHHHH-NH₂; GP₂: H-(GP)₂HHHHHH-NH₂. GR₂₀: H-(GR)₂₀HHHHHH-NH₂; GR₁₀: H-(GR)₁₀HHHHHH-NH₂; GR₆: H-(GR)₆HHHHHH-NH₂; GR₅: H-(GR)₅HHHHHH-NH₂; GR₄: H-(GR)₄HHHHHH-NH₂; GR₃: H-(GR)₃HHHHHH-NH₂; GR₂: H-(GR)₂HHHHHH-NH₂; PA₂₀: H-(PA)₂₀HHHHHH-NH₂; PA₁₀: H-(PA)₁₀HHHHHH-NH₂; PA₆: H-(PA)₆HHHHHH-NH₂; PA₅: H-(PA)₅HHHHHH-NH₂; PA₄: H-(PA)₄HHHHHH-NH₂; PA₃: H-(PA)₃HHHHHH-NH₂; PA₂: H-(PA)₂HHHHHH-NH₂; PR₂₀: H-(PR)₂₀HHHHHH-NH₂; PR₁₀: H-(PR)₁₀HHHHHH-NH₂; PR₆: H-(PR)₆HHHHHH-NH₂; PR₅: H-(PR)₅HHHHHH-NH₂; PR₄: H-(PR)₄HHHHHH-NH₂; PR₃: H-(PR)₃HHHHHH-NH₂; PR₂: H-(PR)₂HHHHHH-NH₂. 96-well microplates (Corning Incorporated, Corning, USA) were coated with dipeptide repeat protein peptides at a concentration of 50 μg/ml in coating buffer (15 mM Na₂CO₃, 35 mM NaHCO₃, pH 9.42). Non-specific binding sites were blocked for 1 h at room temperature with PBS/0.1% Tween®-20 containing 2% BSA (Sigma-Aldrich, Buchs, Switzerland). Primary antibodies were diluted to the indicated concentrations and incubated 1 h at room temperature, followed by incubation with a donkey anti-human IgG Fcγ-specific antibody conjugated with HRP (Jackson ImmunoResearch Laboratories, Inc., West Grove, USA). Binding was determined by measurement of HRP activity in a standard colorimetric assay. EC₅₀ values were estimated by non-linear regression using GraphPad Prism software (San Diego, USA).

GA6: H-(GA)6HHHHHH-NH2 = target: T2, GA6: H-(GA)6HHHHHH-NH2; assay: indirect ELISA, coated His-tagged peptide
Source text: as §1

GA20: H-(GA)20HHHHHH-NH2 = target: T3, GA20: H-(GA)20HHHHHH-NH2; assay: sandwich ELISA, peptide captured by anti-His antibody
Source text: (§2) In brief, His-tagged dipeptide repeat protein peptides were synthesized and purified by Schafer-N(Copenhagen, Denmark): GA₂₀: H-(GA)₂₀HHHHHH-NH₂; GA₁₀: H-(GA)₁₀HHHHHH-NH₂; GA₆: H-(GA)₆HHHHHH-NH₂; GA₅: H-(GA)₅HHHHHH-NH₂; GA₄: H-(GA)₄HHHHHH-NH₂; GA₃: H-(GA)₃HHHHHH-NH₂; GA₂: H-(GA)₂HHHHHH-NH₂; GP₂₀: H-(GP)₂₀HHHHHH-NH₂; GP₁₀: H-(GP)₁₀HHHHHH-NH₂; GP₆: H-(GP)₆HHHHHH-NH₂; GP₅: H-(GP)₅HHHHHH-NH₂; GP₄: H-(GP)₄HHHHHH-NH₂; GP₃: H-(GP)₃HHHHHH-NH₂; GP₂: H-(GP)₂HHHHHH-NH₂. 96-well microplates (Corning Incorporated, Corning, USA) were coated with monoclonal mouse anti-His tag antibody (Takara Bio Europe/Clontech, Saint-Germain-en-Laye, France) at a concentration of 10 μg/ml in coating buffer (15 mM Na₂CO₃, 35 mM NaHCO₃, pH 9.42) overnight at 4° C. Non-specific binding sites were blocked for 1 h at room temperature with PBS/0.1% Tween®-20 containing 2% BSA (Sigma-Aldrich, Buchs, Switzerland). After a washing step, His-tagged C9orf72 DPR protein peptides at equal concentration of either 1 μM or 5 μM in PBS (pH 7.4) were added for target-trapping by the anti-His tag antibody for 1 h at room temperature. […] Antibody binding to DPR protein peptides was detected by a donkey anti-human IgG Fcγ-specific antibody conjugated with HRP at 1:5000 dilution (Jackson ImmunoResearch Laboratories, Inc., West Grove, USA) for 1 h at RT. Binding was determined by measurement of HRP activity in a standard colorimetric assay. EC₅₀ values were estimated by non-linear regression using GraphPad Prism software (San Diego, USA).

GA10: H-(GA)10HHHHHH-NH2 [2] = target: T1, GA10: H-(GA)10HHHHHH-NH2; assay: as above
Source text: as §2

[3] = target: T4, monomeric C9orf72 (GA)20 DPR protein …; assay: sandwich ELISA, preparation captured by anti-His antibody
Description: (§3) 96-well microplates (Corning Incorporated, Corning, USA) were coated with monoclonal mouse anti-His tag antibody (Takara Bio Europe/Clontech, Saint-Germain-en-Laye, France) at a concentration of 10 μg/ml in coating buffer (15 mM Na₂CO₃, 35 mM NaHCO₃, pH 9.42) overnight at 4° C. Non-specific binding sites were blocked for 1 h at room temperature with PBS/0.1% Tween®-20 containing 2% BSA (Sigma-Aldrich, Buchs, Switzerland). After a washing step, his-tagged (GA)₂₀ DPR protein peptide preparations at equal concentration of 5 μM in PBS (pH 7.4) were added for target-trapping by the anti-His tag antibody for 1 h at room temperature. […] Antibody binding to DPR protein peptides was detected by a donkey anti-human IgG Fcγ-specific antibody conjugated with HRP at 1:5000 dilution (Jackson ImmunoResearch Laboratories, Inc., West Grove, USA) for 1 h at RT. Binding was determined by measurement of HRP activity in a standard colorimetric assay. EC₅₀ values were estimated by non-linear regression using GraphPad Prism software (San Diego, USA).

[4] = target: T5, aggregated C9orf72 (GA)20 DPR protein …; assay: as above
Description: as §3

| Binder | EC50 (GA10: H-(GA)10HHHHHH-NH2 [1]) | EC50 (GA6: H-(GA)6HHHHHH-NH2) | EC50 (GA20: H-(GA)20HHHHHH-NH2) | EC50 (GA10: H-(GA)10HHHHHH-NH2 [2]) | EC50 [3] | EC50 [4] |
| --- | --- | --- | --- | --- | --- | --- |
| B1 | 5.7 nM | > 200 nM | – | – | – | – |
| B2 | 0.9 nM | – | 0.4 nM | 0.46 nM | – | – |
| B3 | 27.7 nM | > 200 nM | – | – | – | – |
| B4 | 7.6 nM | > 200 nM | – | – | – | – |
| B5 | 0.78 nM | > 200 nM | 0.45 nM | 0.34 nM | 0.64 nM | 2.9 nM |
| B6 | – | – | 9 nM | > 400 nM | 6.3 nM | 8.1 nM |
